Experimental data from article PMC8010706.

T1: MBP-Sbh1 full length, P52870
T1 chain: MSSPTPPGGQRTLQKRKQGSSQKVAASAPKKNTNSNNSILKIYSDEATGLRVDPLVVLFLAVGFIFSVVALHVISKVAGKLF


Columns and labels:
MBP-Sbh1 full length = MBP-Sbh1 full length (UniProt P52870); assay: pull-down (Ni-NTA capture after coexpression, Coomassie quantification); conditions: experiments performed 3 to 4 times; parent: 1
[1] = target: hSgt2 M233D (Homo sapiens) (UniProt O43765); assay: pull-down; capture assay: His-tagged Sgt2 construct coexpressed with MBP-Sbh1 in E. coli; lysate incubated in batch with Ni-NTA resin at 4 °C for 1 h, washed with 20 mM Tris, 150 mM NaCl, 25 mM imidazole, 10 mM BME, pH 7.5, eluted with 300 mM imidazole; Coomassie-stained gel, MBP-Sbh1/Sgt2 ratio normalised to wild type
[2] = target: T1, MBP-Sbh1 full length, P52870; assay: pull-down (Ni-NTA capture after coexpression, Coomassie quantification); conditions: chain shown with the change; capture assay repeated three times; parent: 1

His-tagged ySgt2-C (ySgt2 222-346), sequence (Q12118 222-346, change not shown): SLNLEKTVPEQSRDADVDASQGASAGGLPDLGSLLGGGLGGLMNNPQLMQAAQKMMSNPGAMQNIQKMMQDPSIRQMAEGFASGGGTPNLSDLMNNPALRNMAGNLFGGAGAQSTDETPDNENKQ
His-tagged hSgt2-C (hSgt2 213-313), sequence (O43765 213-313, change not shown): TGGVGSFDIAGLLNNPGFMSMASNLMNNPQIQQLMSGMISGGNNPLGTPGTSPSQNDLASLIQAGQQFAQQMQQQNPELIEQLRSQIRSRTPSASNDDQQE

Row | Molecule | ratio to parent (MBP-Sbh1 full length) | ratio to parent [2] | also measured
1 | His-tagged hSgt2-C (hSgt2 213-313) (from UniProt O43765) H1A | 0.21 | – | –
2 | His-tagged hSgt2-C (hSgt2 213-313) (from UniProt O43765) H4A | 0.55 | – | –
3 | His-tagged ySgt2-C (ySgt2 222-346) (from UniProt Q12118) H4A | 0.27 | – | –
4 | His-tagged ySgt2-C (ySgt2 222-346) (from UniProt Q12118) H2A | 0.1 | – | –
5 | His-tagged hSgt2-C (hSgt2 213-313) (from UniProt O43765) H5A | 0.67 | – | –
6 | His-tagged ySgt2-C (ySgt2 222-346) (from UniProt Q12118) H3A | 0.19 | – | –
7 | His-tagged ySgt2-C (ySgt2 222-346) (from UniProt Q12118) H5A | 0.32 | – | –
8 | His-tagged hSgt2-C (hSgt2 213-313) (from UniProt O43765) H0A | 0.63 | – | –
9 | His-tagged hSgt2-C (hSgt2 213-313) (from UniProt O43765) H2/3A | 0.27 | – | –
10 | His-tagged ySgt2-C (ySgt2 222-346) (from UniProt Q12118) H1A | 0.03 | – | –
11 | MBP-Sbh1 full length (natural protein) MSSPTPPGGQRTLQKRKQGSSQKVAASAPKKNTNSNNSILKIYSDEATGLRVDPLVVLFLAVGFIFSVVALHVISKVAGKLF | – | – | percent reduction of binding relative to wild type [1]: 36%
12 | His-tagged hSgt2-C (hSgt2 213-313), O43765 L224D; F280D (protein) TGGVGSFDIAGDLNNPGFMSMASNLMNNPQIQQLMSGMISGGNNPLGTPGTSPSQNDLASLIQAGQQDAQQMQQQNPELIEQLRSQIRSRTPSASNDDQQE | – | 0.21 | –
13 | His-tagged hSgt2-C (hSgt2 213-313), O43765 M233D; L295D (protein) TGGVGSFDIAGLLNNPGFMSDASNLMNNPQIQQLMSGMISGGNNPLGTPGTSPSQNDLASLIQAGQQFAQQMQQQNPELIEQDRSQIRSRTPSASNDDQQE | – | 0.44 | –
14 | His-tagged hSgt2-C (hSgt2 213-313), O43765 M247D (protein) TGGVGSFDIAGLLNNPGFMSMASNLMNNPQIQQLDSGMISGGNNPLGTPGTSPSQNDLASLIQAGQQFAQQMQQQNPELIEQLRSQIRSRTPSASNDDQQE | – | 0.68 | –
15 | His-tagged hSgt2-C (hSgt2 213-313), O43765 L224D; L295D (protein) TGGVGSFDIAGDLNNPGFMSMASNLMNNPQIQQLMSGMISGGNNPLGTPGTSPSQNDLASLIQAGQQFAQQMQQQNPELIEQDRSQIRSRTPSASNDDQQE | – | 0.16 | –
16 | His-tagged hSgt2-C (hSgt2 213-313), O43765 F280D (protein) TGGVGSFDIAGLLNNPGFMSMASNLMNNPQIQQLMSGMISGGNNPLGTPGTSPSQNDLASLIQAGQQDAQQMQQQNPELIEQLRSQIRSRTPSASNDDQQE | – | 0.69 | –
17 | His-tagged hSgt2-C (hSgt2 213-313), O43765 L295D (protein) TGGVGSFDIAGLLNNPGFMSMASNLMNNPQIQQLMSGMISGGNNPLGTPGTSPSQNDLASLIQAGQQFAQQMQQQNPELIEQDRSQIRSRTPSASNDDQQE | – | 0.86 | –
18 | His-tagged hSgt2-C (hSgt2 213-313), O43765 L224D (protein) TGGVGSFDIAGDLNNPGFMSMASNLMNNPQIQQLMSGMISGGNNPLGTPGTSPSQNDLASLIQAGQQFAQQMQQQNPELIEQLRSQIRSRTPSASNDDQQE | – | 0.71 | –
19 | His-tagged hSgt2-C (hSgt2 213-313), O43765 M233D; F280D (protein) TGGVGSFDIAGLLNNPGFMSDASNLMNNPQIQQLMSGMISGGNNPLGTPGTSPSQNDLASLIQAGQQDAQQMQQQNPELIEQLRSQIRSRTPSASNDDQQE | – | 0.59 | –

Continued, in another order:

Row | ratio to parent (MBP-Sbh1 full length) | ratio to parent [2] | Molecule | also measured
20 | – | 0.34 | His-tagged ySgt2-C (ySgt2 222-346), Q12118 M315D (protein) SLNLEKTVPEQSRDADVDASQGASAGGLPDLGSLLGGGLGGLMNNPQLMQAAQKMMSNPGAMQNIQKMMQDPSIRQMAEGFASGGGTPNLSDLDNNPALRNMAGNLFGGAGAQSTDETPDNENKQ | –
21 | – | 0.4 | His-tagged ySgt2-C (ySgt2 222-346), Q12118 L327D (protein) SLNLEKTVPEQSRDADVDASQGASAGGLPDLGSLLGGGLGGLMNNPQLMQAAQKMMSNPGAMQNIQKMMQDPSIRQMAEGFASGGGTPNLSDLMNNPALRNMAGNDFGGAGAQSTDETPDNENKQ | –
22 | – | 0.18 | His-tagged ySgt2-C (ySgt2 222-346), Q12118 M290D (protein) SLNLEKTVPEQSRDADVDASQGASAGGLPDLGSLLGGGLGGLMNNPQLMQAAQKMMSNPGAMQNIQKMDQDPSIRQMAEGFASGGGTPNLSDLMNNPALRNMAGNLFGGAGAQSTDETPDNENKQ | –
23 | – | 0.14 | His-tagged ySgt2-C (ySgt2 222-346), Q12118 M277D (protein) SLNLEKTVPEQSRDADVDASQGASAGGLPDLGSLLGGGLGGLMNNPQLMQAAQKMDSNPGAMQNIQKMMQDPSIRQMAEGFASGGGTPNLSDLMNNPALRNMAGNLFGGAGAQSTDETPDNENKQ | –
24 | – | 0.23 | His-tagged ySgt2-C (ySgt2 222-346), Q12118 L320D (protein) SLNLEKTVPEQSRDADVDASQGASAGGLPDLGSLLGGGLGGLMNNPQLMQAAQKMMSNPGAMQNIQKMMQDPSIRQMAEGFASGGGTPNLSDLMNNPADRNMAGNLFGGAGAQSTDETPDNENKQ | –
25 | – | 0.21 | His-tagged ySgt2-C (ySgt2 222-346), Q12118 I295D (protein) SLNLEKTVPEQSRDADVDASQGASAGGLPDLGSLLGGGLGGLMNNPQLMQAAQKMMSNPGAMQNIQKMMQDPSDRQMAEGFASGGGTPNLSDLMNNPALRNMAGNLFGGAGAQSTDETPDNENKQ | –
26 | – | 0.29 | His-tagged ySgt2-C (ySgt2 222-346), Q12118 M323D (protein) SLNLEKTVPEQSRDADVDASQGASAGGLPDLGSLLGGGLGGLMNNPQLMQAAQKMMSNPGAMQNIQKMMQDPSIRQMAEGFASGGGTPNLSDLMNNPALRNDAGNLFGGAGAQSTDETPDNENKQ | –
27 | – | 0.13 | His-tagged ySgt2-C (ySgt2 222-346), Q12118 I286D (protein) SLNLEKTVPEQSRDADVDASQGASAGGLPDLGSLLGGGLGGLMNNPQLMQAAQKMMSNPGAMQNDQKMMQDPSIRQMAEGFASGGGTPNLSDLMNNPALRNMAGNLFGGAGAQSTDETPDNENKQ | –
